In the supplement of paper PMC9112550, “Optimization of the antimicrobial peptide Bac7 by deep mutational scanning” (BMC Biology, 2022):

Tested on: Escherichia coli TOP10
Assay: shrunken log2 fold change of peptide-encoding DNA abundance (4.5 h post-induction vs induction); higher = less antimicrobial activity (less host growth inhibition)
Conditions: time post-induction: 4.5 h; library: site-saturation at positions 5, 18, 19, 20
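Also: peptides expressed intracellularly from a pBAD plasmid library in pooled LB shake-flask culture, induced with 0.3% L-arabinose, DNA abundance read by NGS, three biological replicates, DESeq2 with apeglm shrinkage.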

RRIRRRPPRLPRPRPRPLEMPRP
shrunken log2 fold change: 0.181

RRIRMRPPRLPRPRPRPWCCPRP
shrunken log2 fold change: 0.0172

RRIRHRPPRLPRPRPRPARPPRP
shrunken log2 fold change: 0.502

RRIRERPPRLPRPRPRPHYPPRP
shrunken log2 fold change: -0.649

RRIRARPPRLPRPRPRPYRRPRP
shrunken log2 fold change: -0.174

RRIRRRPPRLPRPRPRPMVGPRP
shrunken log2 fold change: 0.397

RRIRGRPPRLPRPRPRPRQHPRP
shrunken log2 fold change: 0.305

RRIRFRPPRLPRPRPRPNNKPRP
shrunken log2 fold change: -0.646

RRIRKRPPRLPRPRPRPFFDPRP
shrunken log2 fold change: 0.112

RRIRARPPRLPRPRPRPDCEPRP
shrunken log2 fold change: 1

RRIRKRPPRLPRPRPRPEADPRP
shrunken log2 fold change: 0.00157

RRIRDRPPRLPRPRPRPDDAPRP
shrunken log2 fold change: 0.365

RRIRYRPPRLPRPRPRPQRRPRP
shrunken log2 fold change: -0.261

RRIRQRPPRLPRPRPRPISHPRP
shrunken log2 fold change: -0.421

RRIRVRPPRLPRPRPRPHREPRP
shrunken log2 fold change: -0.223

RRIRARPPRLPRPRPRPERIPRP
shrunken log2 fold change: 0.155

RRIRRRPPRLPRPRPRPGDVPRP
shrunken log2 fold change: 0.249

RRIRSRPPRLPRPRPRPGHRPRP
shrunken log2 fold change: -0.326

RRIRHRPPRLPRPRPRPAAMPRP
shrunken log2 fold change: 0.191

RRIRRRPPRLPRPRPRPHAQPRP
shrunken log2 fold change: 0.0722

RRIRIRPPRLPRPRPRPYTEPRP
shrunken log2 fold change: -0.512

RRIRGRPPRLPRPRPRPIPCPRP
shrunken log2 fold change: 0.184

RRIRQRPPRLPRPRPRPSIHPRP
shrunken log2 fold change: -0.451

RRIRSRPPRLPRPRPRPEPNPRP
shrunken log2 fold change: 0.374

RRIRCRPPRLPRPRPRPTYAPRP
shrunken log2 fold change: 0.125

RRIRGRPPRLPRPRPRPFIIPRP
shrunken log2 fold change: 0.102

RRIRCRPPRLPRPRPRPFATPRP
shrunken log2 fold change: 0.287

RRIRMRPPRLPRPRPRPERTPRP
shrunken log2 fold change: 0.00114

RRIRWRPPRLPRPRPRPRLCPRP
shrunken log2 fold change: 0.512

RRIRFRPPRLPRPRPRPMNLPRP
shrunken log2 fold change: -0.623

RRIRDRPPRLPRPRPRPHSIPRP
shrunken log2 fold change: 0.0345

RRIRLRPPRLPRPRPRPGYGPRP
shrunken log2 fold change: 0.0339

RRIRYRPPRLPRPRPRPCKAPRP
shrunken log2 fold change: -0.073

RRIRPRPPRLPRPRPRPFAGPRP
shrunken log2 fold change: 0.0806

RRIRFRPPRLPRPRPRPNLWPRP
shrunken log2 fold change: 0.031

RRIRLRPPRLPRPRPRPLLKPRP
shrunken log2 fold change: -0.163

RRIRMRPPRLPRPRPRPTWHPRP
shrunken log2 fold change: 0.309

RRIRKRPPRLPRPRPRPSRLPRP
shrunken log2 fold change: 0.111

RRIRQRPPRLPRPRPRPEEKPRP
shrunken log2 fold change: 0.00355

RRIRCRPPRLPRPRPRPDFWPRP
shrunken log2 fold change: 0.0753

RRIRTRPPRLPRPRPRPHGAPRP
shrunken log2 fold change: -0.0597

RRIRCRPPRLPRPRPRPGDMPRP
shrunken log2 fold change: -0.115

RRIRGRPPRLPRPRPRPNIAPRP
shrunken log2 fold change: 0.197

RRIRERPPRLPRPRPRPSNTPRP
shrunken log2 fold change: -0.942

RRIRTRPPRLPRPRPRPKEVPRP
shrunken log2 fold change: -0.0117

RRIRTRPPRLPRPRPRPFQTPRP
shrunken log2 fold change: 0.0582

RRIRLRPPRLPRPRPRPERCPRP
shrunken log2 fold change: 0.00413

RRIRVRPPRLPRPRPRPGYRPRP
shrunken log2 fold change: -0.203

RRIRNRPPRLPRPRPRPNVYPRP
shrunken log2 fold change: -0.17

RRIRDRPPRLPRPRPRPNLMPRP
shrunken log2 fold change: 0.0913

RRIRGRPPRLPRPRPRPTVMPRP
shrunken log2 fold change: 0.074

RRIRVRPPRLPRPRPRPPRRPRP
shrunken log2 fold change: 0.491

RRIRTRPPRLPRPRPRPEWRPRP
shrunken log2 fold change: 0.338

RRIRTRPPRLPRPRPRPAMFPRP
shrunken log2 fold change: -0.686

RRIRMRPPRLPRPRPRPIPFPRP
shrunken log2 fold change: 0.146

RRIRNRPPRLPRPRPRPQNLPRP
shrunken log2 fold change: -0.266

RRIRRRPPRLPRPRPRPPEFPRP
shrunken log2 fold change: 0.614

RRIRPRPPRLPRPRPRPFEMPRP
shrunken log2 fold change: 0.0143

RRIRHRPPRLPRPRPRPAAHPRP
shrunken log2 fold change: 0.274

RRIRHRPPRLPRPRPRPVQAPRP
shrunken log2 fold change: 0.00472

RRIRFRPPRLPRPRPRPDCTPRP
shrunken log2 fold change: -0.0512

RRIRWRPPRLPRPRPRPIGYPRP
shrunken log2 fold change: -0.0135

RRIRARPPRLPRPRPRPHAQPRP
shrunken log2 fold change: 0.122

RRIRWRPPRLPRPRPRPIMKPRP
shrunken log2 fold change: -0.0768

RRIRWRPPRLPRPRPRPKRAPRP
shrunken log2 fold change: 0.797

RRIRVRPPRLPRPRPRPSCWPRP
shrunken log2 fold change: 0.178

RRIRARPPRLPRPRPRPWGWPRP
shrunken log2 fold change: 0.649

RRIRWRPPRLPRPRPRPPIGPRP
shrunken log2 fold change: 0.324

RRIRYRPPRLPRPRPRPPYRPRP
shrunken log2 fold change: -0.714

RRIRKRPPRLPRPRPRPAESPRP
shrunken log2 fold change: 0.563

RRIRWRPPRLPRPRPRPPALPRP
shrunken log2 fold change: 0.433

RRIRHRPPRLPRPRPRPVCDPRP
shrunken log2 fold change: -0.41

RRIRERPPRLPRPRPRPLWLPRP
shrunken log2 fold change: -0.203

RRIRDRPPRLPRPRPRPRLRPRP
shrunken log2 fold change: 0.122

RRIRCRPPRLPRPRPRPLGKPRP
shrunken log2 fold change: -0.101

RRIRTRPPRLPRPRPRPFNAPRP
shrunken log2 fold change: -0.344

RRIRWRPPRLPRPRPRPIVDPRP
shrunken log2 fold change: -0.0254

RRIRPRPPRLPRPRPRPTTGPRP
shrunken log2 fold change: 0.12

RRIRCRPPRLPRPRPRPTVRPRP
shrunken log2 fold change: 0.128

RRIRMRPPRLPRPRPRPDLEPRP
shrunken log2 fold change: 1.54

RRIRWRPPRLPRPRPRPPYNPRP
shrunken log2 fold change: -0.221

RRIRTRPPRLPRPRPRPEVTPRP
shrunken log2 fold change: -0.00738

RRIRPRPPRLPRPRPRPTWEPRP
shrunken log2 fold change: 0.659

RRIRDRPPRLPRPRPRPIAFPRP
shrunken log2 fold change: 0.15

RRIRLRPPRLPRPRPRPLMWPRP
shrunken log2 fold change: 0.115

RRIRVRPPRLPRPRPRPPFMPRP
shrunken log2 fold change: 1.97

RRIRHRPPRLPRPRPRPKEIPRP
shrunken log2 fold change: -0.00142

RRIRKRPPRLPRPRPRPKKYPRP
shrunken log2 fold change: -0.149

RRIRGRPPRLPRPRPRPCDSPRP
shrunken log2 fold change: 0.0374

RRIRKRPPRLPRPRPRPFPTPRP
shrunken log2 fold change: 2.75

RRIRQRPPRLPRPRPRPMDKPRP
shrunken log2 fold change: 0.0321

RRIRFRPPRLPRPRPRPIMMPRP
shrunken log2 fold change: -0.529

RRIRNRPPRLPRPRPRPLLLPRP
shrunken log2 fold change: -0.25

RRIRRRPPRLPRPRPRPIFQPRP
shrunken log2 fold change: 0.303

RRIRQRPPRLPRPRPRPMWMPRP
shrunken log2 fold change: 0.0583

RRIRRRPPRLPRPRPRPTQLPRP
shrunken log2 fold change: 0.628

RRIRQRPPRLPRPRPRPGAVPRP
shrunken log2 fold change: 0.274

RRIRQRPPRLPRPRPRPQNSPRP
shrunken log2 fold change: -0.0328

RRIRVRPPRLPRPRPRPWWWPRP
shrunken log2 fold change: 0.0767

RRIRYRPPRLPRPRPRPAYTPRP
shrunken log2 fold change: -0.222

RRIRVRPPRLPRPRPRPHHGPRP
shrunken log2 fold change: -0.348

RRIRTRPPRLPRPRPRPLNGPRP
shrunken log2 fold change: -0.235

RRIRSRPPRLPRPRPRPKGWPRP
shrunken log2 fold change: 1.19

RRIRIRPPRLPRPRPRPKSHPRP
shrunken log2 fold change: -0.451

RRIRMRPPRLPRPRPRPLENPRP
shrunken log2 fold change: 0.0866

RRIRQRPPRLPRPRPRPCTAPRP
shrunken log2 fold change: 0.139

RRIRERPPRLPRPRPRPWATPRP
shrunken log2 fold change: 0.127

RRIRPRPPRLPRPRPRPEGIPRP
shrunken log2 fold change: -0.00608

RRIRARPPRLPRPRPRPPWAPRP
shrunken log2 fold change: 0.576

RRIRTRPPRLPRPRPRPHMEPRP
shrunken log2 fold change: 0.0103

RRIRPRPPRLPRPRPRPDETPRP
shrunken log2 fold change: -0.088

RRIRIRPPRLPRPRPRPGPGPRP
shrunken log2 fold change: 0.385

RRIRWRPPRLPRPRPRPMVEPRP
shrunken log2 fold change: 0.35

RRIRGRPPRLPRPRPRPSEEPRP
shrunken log2 fold change: 0.503

RRIRARPPRLPRPRPRPIINPRP
shrunken log2 fold change: -0.174

RRIRPRPPRLPRPRPRPGIMPRP
shrunken log2 fold change: -0.2

RRIRPRPPRLPRPRPRPEKTPRP
shrunken log2 fold change: 0.037

RRIRVRPPRLPRPRPRPDWQPRP
shrunken log2 fold change: 0.0968

RRIRERPPRLPRPRPRPPMTPRP
shrunken log2 fold change: -0.163

RRIRRRPPRLPRPRPRPYERPRP
shrunken log2 fold change: -0.18

RRIRTRPPRLPRPRPRPYDYPRP
shrunken log2 fold change: -0.00193

RRIRIRPPRLPRPRPRPPTSPRP
shrunken log2 fold change: -0.172

RRIRFRPPRLPRPRPRPLGEPRP
shrunken log2 fold change: 0.0158

RRIRCRPPRLPRPRPRPKSRPRP
shrunken log2 fold change: 0.0706

RRIRARPPRLPRPRPRPNKHPRP
shrunken log2 fold change: -0.171

RRIRHRPPRLPRPRPRPKILPRP
shrunken log2 fold change: 0.0673

RRIRPRPPRLPRPRPRPTEEPRP
shrunken log2 fold change: 0.551

RRIRIRPPRLPRPRPRPTYGPRP
shrunken log2 fold change: -0.548

RRIRVRPPRLPRPRPRPLIVPRP
shrunken log2 fold change: -0.335

RRIRDRPPRLPRPRPRPRMYPRP
shrunken log2 fold change: -0.154

RRIRFRPPRLPRPRPRPFTPPRP
shrunken log2 fold change: -0.358

RRIRTRPPRLPRPRPRPENWPRP
shrunken log2 fold change: 0.157

RRIRMRPPRLPRPRPRPNAHPRP
shrunken log2 fold change: 8.74e-05

RRIRWRPPRLPRPRPRPCVLPRP
shrunken log2 fold change: -0.0369

RRIRARPPRLPRPRPRPMAWPRP
shrunken log2 fold change: 0.662

RRIRHRPPRLPRPRPRPNHHPRP
shrunken log2 fold change: -0.797

RRIRERPPRLPRPRPRPKNSPRP
shrunken log2 fold change: -0.52

RRIRNRPPRLPRPRPRPFKMPRP
shrunken log2 fold change: -0.258

RRIRRRPPRLPRPRPRPSPVPRP
shrunken log2 fold change: 0.379

RRIRTRPPRLPRPRPRPMYEPRP
shrunken log2 fold change: -0.375

RRIRPRPPRLPRPRPRPEDVPRP
shrunken log2 fold change: -0.0168

RRIRNRPPRLPRPRPRPEDLPRP
shrunken log2 fold change: -0.00079

RRIRQRPPRLPRPRPRPTYFPRP
shrunken log2 fold change: -0.0458

RRIRNRPPRLPRPRPRPQFNPRP
shrunken log2 fold change: -0.0424

RRIRCRPPRLPRPRPRPFQCPRP
shrunken log2 fold change: -0.296

RRIRHRPPRLPRPRPRPMNQPRP
shrunken log2 fold change: -0.221

RRIRGRPPRLPRPRPRPFMKPRP
shrunken log2 fold change: -0.248

RRIRLRPPRLPRPRPRPYGYPRP
shrunken log2 fold change: -0.01

RRIRERPPRLPRPRPRPTPKPRP
shrunken log2 fold change: 0.525

RRIRHRPPRLPRPRPRPTVKPRP
shrunken log2 fold change: -0.255
